Data: the supplement of paper PMC12764529
± gives the half width of the 95% confidence interval.

What was measured:
[1] = folding stability dG unfold from trypsin proteolysis; higher = more stable
How it was run: (§1)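 Sequencing followed digestion of designed mini-proteins with trypsin and chymotrypsin, each at 11 concentrations in threefold dilutions together with a no-protease condition. The mini-proteins were under 80 residues, had no cysteine, sat in a PA-tagged cDNA display construct, and were kept only if AlphaFold2 dimer inter-PAE was above 15. From the counts, Bayesian fitting gave K50, and unfolding free energy was derived against a sequence-predicted unfolded-state K50 and a shared folded-state K50, per protease or combined.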

[2] = folding stability dG unfold from chymotrypsin proteolysis; higher = more stable
How it was run: as §1

[3] = folding stability dG unfold (combined trypsin and chymotrypsin); higher = more stable
How it was run: as §1

Row | Sequence | folding stability dG unfold [1] [kcal/mol] | folding stability dG unfold [2] [kcal/mol] | folding stability dG unfold [3] [kcal/mol]
1 | SAGGSAGGSKKKVKVKKFEKTKDADGNEVVKVFFEDDGKVVTLPEELADKLKEDDEFDLEDLASAGGSAGGS [r20_3_TrMRF] | -0.314 ± 0.077 | 0.381 ± 0.053 | 0.139 ± 0.1
2 | SAGGSAGGKTLTIKLKDSTVTIELPSSISSISRIEVHSDGSLTLYHSSTGSTITLPIPPKIDNPSAGGSAGG [r6_369_TrMRF] | 1.74 ± 0.058 | 2.06 ± 0.035 | 1.96 ± 0.051
3 | SMKVKTYTFKIKVDGKEIEVTVEELEDGELLVTIKIKENGKEKTIVVSREELEELLKALLPPGAEIEKVESA [r9_384_TrROS_Hall] | 2.99 ± 0.13 | 3.49 ± 0.055 | 3.33 ± 0.099
4 | SAGGSAGGSAGGERVLVMVFKFDPEDNDMKIKDVVTFPNPEEAREEAEKDGYMVMVIPLSAGGSAGGSAGGS [r10_657_TrROS] | 0.995 ± 0.048 | 1.85 ± 0.12 | 1.47 ± 0.2
5 | SAGGSAGGSAGKIIEELKKKGYKVEVIKDKKTKKYYVKITVTDKKGNKKTITIPLKDIKPSAGGSAGGSAGG [r17_311_TrROS_Hall] | 2.8 ± 0.23 | 4 ± 0.21 | 3.71 ± 0.35
6 | SAGGKKVEILEVSVKPVTLGGKKKYYLNVKVKTPDGKVVNVTMPLEVVKSLGFSIEEFAKAVAKTLLSAGGS [r16_625_TrMRF] | 2.96 ± 0.071 | 3.89 ± 0.045 | 3.61 ± 0.055
7 | SAGGSAGGSAMKIPPGETVEEVELSFLPNGEIILKKTTITKKGNTTTVETEVKIVKPDVPLSAGGSAGGSAG [r3_49_JUSTAS] | 0.877 ± 0.027 | 0.701 ± 0.067 | 0.836 ± 0.1
8 | SAGGSAGGSAGGGELKYRTLTVDLPVDDPDGRKLPRRLVITFPASNPELAEAFLKALGYSAGGSAGGSAGGS [r10_1062_TrMRF] | 1.11 ± 0.012 | 1.75 ± 0.021 | 1.52 ± 0.034
9 | SAGGSAGGDGPGAPPVPRIRIKVEFEHNGKKVTWEFRSLDDMKEQVKERFKENGLKVKITEIEWSAGGSAGG [r6_869_TrROS] | 1.67 ± 0.06 | 2.04 ± 0.041 | 1.88 ± 0.1
10 | SAGGSAVPAGTTFELRYPEDEGSLTLTYDPSTNTVTITDGDKTTTYSSTSLEEVLKELGAELASRLSAGGSA [r15_500_JUSTAS] | 0.998 ± 0.041 | 1.35 ± 0.094 | 1.22 ± 0.09
11 | SAGGSAGGSPNYRTVTVTLPNGEVYVIDVSQLIESDPNYVPGDPISDEELVALAKKRAEELELSSAGGSAGG [r6_65_JUSTAS] | 2.71 ± 0.051 | 3.249 ± 0.031 | 3.04 ± 0.041
12 | SAGMDPDDPDYMIFINLDIKLEVEPDPDNGKPYVKLEIRITNIMVFDPDNGKMEMEPIEIEMTLPPDDISAG [r5_270_TrROS] | 1.3 ± 0.083 | 3.09 ± 0.17 | 2.48 ± 0.3
13 | SAGGSAGGSAGGEYEIVKIEKVKNENGELYYKMIIKDKKTNKEIEIYMSLEELKKLKPKSAGGSAGGSAGGS [r10_326_TrROS_Hall] | 2.05 ± 0.047 | 3.85 ± 0.16 | 3.24 ± 0.18
14 | SAGGVTTPVTFTVPPSLDPEEAAERIAKELEEELKAASNKKVKVTVESVTPLPDGTLRVTVVITTEPSAGGS [r8_156_JUSTAS] | 3.76 ± 0.2 | 3.14 ± 0.067 | 3.31 ± 0.086
15 | SAGGSAGGSAGGGWIYMVTIEPKEVKRSPDPGGKGRPTFEFEMDITIIWIRVDPEDLDDSAGGSAGGSAGGS [r10_654_TrROS] | 2.85 ± 0.13 | 4.14 ± 0.073 | 3.76 ± 0.15
16 | SAGGSAGGSGSMPVTIEIEYKDPKSDKTFKKTILVPPSVTDPEAVAEEVAKELGPVEKVKITSSAGGSAGGS [r12_942_JUSTAS] | 0.595 ± 0.061 | -0.44 ± 0.24 | 0.0443 ± 0.48

Row | Sequence | folding stability dG unfold [1] [kcal/mol] | folding stability dG unfold [2] [kcal/mol] | folding stability dG unfold [3] [kcal/mol]
17 | SAGGGVEITREPDPAGGRRVRFTDPSGRTFEVEITPDSLRITRPDGTTRSAAVPPDADLRLPYSELASAGGS [r16_203_JUSTAS] | -0.625 ± 0.12 | 0.418 ± 0.041 | 0.134 ± 0.057
18 | SAGGSAGGSASMTSSVSTSLNPDNPPVVLVTTTYPDGTVTLTVKDLSTGTTTSTTTTPLPSSAGGSAGGSAG [r3_299_JUSTAS] | 1.17 ± 0.042 | 0.589 ± 0.043 | 0.893 ± 0.059
19 | SEWVKVKVEIKMPFYNGNKPMPMSIEVEYEVPPNDPGMTPEDLPPEELAKEAIEKAYDYMRKLGLPPDMFSA [r9_516_TrROS] | 2.21 ± 0.19 | 2.97 ± 0.12 | 2.74 ± 0.39
20 | SAGGSAGGSAGGDGIVVPVDEAVGLIKELGLKVVGVFEHPGGPPAVLFELPDGRLLLAESAGGSAGGSAGGS [r10_210_TrMRF] | 0.381 ± 0.045 | 0.792 ± 0.042 | 0.603 ± 0.047
21 | SAGGSAGGSAGGKLTIVIEGMSEEEVKALAEALRKAGLEIEVTVVPVEVKEPELPEEEKSAGGSAGGSAGGS [r10_361_TrROS_Hall] | 1.57 ± 0.081 | 2.29 ± 0.053 | 2.04 ± 0.12
22 | SAGGSAGGSAGGSASMSVTLERLPNGTVVKITTKSVDPSTGSVDYKPSVEKIPPGVALDSAGGSAGGSAGGS [r4_72_JUSTAS] | -0.437 ± 0.18 | -0.448 ± 0.1 | -0.515 ± 0.28
23 | SAGGPEIRLRVRRPVRLTRRELLPDGTWRTLPARPGYEELEITFTGPEETARRLREELERLGYEVEEVSAGG [r13_452_TrMRF] | 1.76 ± 0.056 | 2.84 ± 0.066 | 2.44 ± 0.12
24 | SAGGSAAEETYESDGLTVTVRTERGPDGTVRVVVEVRDRDGPLLATLPFTFKAREDEGLSFSVPFPSAGGSA [r15_950_TrMRF] | 1.28 ± 0.036 | 1.26 ± 0.099 | 1.34 ± 0.076
25 | SAGGSAGGSAYWRIKIFYPNNGREVTIHVPGSADDILDEAKPQFGYPPDNIKKIKIEPMDNSAGGSAGGSAG [r3_79_TrROS] | -0.409 ± 0.33 | 0.783 ± 0.35 | 0.432 ± 0.21
26 | SSPLDPAGRFTIEVVFTTSADGTLTATFTITAPGGVPLKTLTRSFTNPSPGKAAAVEEAEALKAEIEAAASA [r9_739_JUSTAS] | 1.3 ± 0.025 | 2.35 ± 0.047 | 1.97 ± 0.064
27 | SAGGSAGGSAGGSMPEGTVLSVDPSTGLKVVYFPGENKLVFEEISPSNELVKRSEFPLSSAGGSAGGSAGGS [r4_192_JUSTAS] | -0.116 ± 0.14 | 0.436 ± 0.073 | 0.15 ± 0.13
28 | NPIERLKEAIKNAPPGETADIPFPDGMYININIEPEREKEDGKPRRRRKIKIEIYPPDGKPLGSITLEVPYS [r1_386_TrROS] | 1.49 ± 0.084 | 1.23 ± 0.11 | 1.36 ± 0.15
29 | SAGGSAGGSAGGPAAGEKVVAVGVNPNGETSVREFTVHPDDPLGEVYTEDGTRWYFYPGTSAGGSAGGSAGG [r7_132_TrMRF] | 0.303 ± 0.091 | 0.338 ± 0.23 | 0.342 ± 0.15
30 | SASITLTAPGGKPVTLPVPPSLSVLSVELDPATGRWTIELQDPATGERFTVTVYAPPSGPAGVEVTPNVSAG [r14_311_JUSTAS] | 3.61 ± 0.04 | 3.409 ± 0.02 | 3.486 ± 0.032
31 | SKKYKIKKVTIFVYKNGKVEEKEVDLTVDELKALEDAGFEVVKVEEKDGYITVVIKKDGYLVIIKIEIEPSA [r9_5_TrROS_Hall] | 2.73 ± 0.18 | 3.9 ± 0.2 | 3.52 ± 0.37
